From the DeepSol protein solubility set come the findings set out here.

The data set can be described thus: soluble on expression in E. coli; label from the status in PepcDB or PDB records.
For “MSLSVAVSPLAPKSYPDMPALRGVRMATAAAGIKYKNRTDVLLMVFDKPASVAGVFTKSKCPSAPVDFCRANLGSGAARAVVVNSGNANAFTGVKGKAATELTAKSAAAAVGCSEGEIFLASTGVIGEPLDASKFAGVLGDMNVRAEADFWQEAAKAIMTTDTYPKVSTRTAEIGGVIVTINGISKGAGMIAPDMATMLSFVVTDADIEPAALQSLLSAGVGPTFNSVTVDSDTSTSDTLMLFATGAAAEDGQVKVTSADDERLSSFRAALNDLLKDLALQVVRDGEGARKMVEVTVTGAENDAAAKKIALSIANSPLVKTAVAGEDANWGRVVMAVGKSGEMADRDRLAIWFGGVRVAVNGERDPDYSEAETTAVMRLEDITVKVDIGLGQGTATVWTCDLTKEYVAINGDYRSEGHHHHHH”, the “soluble on expression in E. coli” value is “not soluble”.

For the sequence “MAPDRSGGPAAAELIAGLGLERHPEGGWYRETYRAAGTIPGTLLPGQVGGERSFSTAIYFLLERGDISALHRIRSDELWHFHAGAPLIVHVITPAGGSYALTLGSDPASGETFQAVVPAGCWFGAETTGDYSLVGCTVAPGFDFADFEMGSRADLLGRFPTHAGIIRRLTRDGDLEHHHHHH”, the “soluble on expression in E. coli” value is listed as “not soluble”.

Consider “MGSDKIHHHHHHMYLESIELYSNITKAAAHLFISQPYLSKVIKQLENELEIKLIQSQGHQTFLTYAGQRYLFYLKEIDMIERQMAKELYLIRSDKKGEITLGINSGLASSILANVLPKFNLEHPEISVKLLENNQNISEQLVASGDIDLAVGMAPILYKDGIASTTIYRDELFLMIPTTSQLYNAEKRGQIIPFEYPISVLDNEPLILTPLEYGIGKTIAQFYELHHMSLNQMITTSTVPTAASLSLSGMGATFVPQTLIHRYLDKECNVYHFHKNKLFSEYIMIYKKDVELSGIALLLYKAFLTK”, for which the “soluble on expression in E. coli” value was “not soluble”.

Take “MSNQKLSDGGACCSPLAREPLTEDWAGDLARMFKALGDPVRLRLLSLIASHAGGEACVCDISESFDLSQPTISHHLKVLRAAGLLDCERRGTWVYYWVIPSALQQLSAVLLTESGTAVPSPTCAEARA”: the “soluble on expression in E. coli” value is listed as “not soluble”.

As for “MGSDKIHHHHHHKKVIKTMMIAGQDGSHYWRGACEAMKQILENSGMFKVDFVFTPDFGGDINTFKPDFAKYNLVVVNYGGEVWPEPVQKAFENYVADGGGVVIIHSSVVPMAGWKAYNEIIGMGAWEGRNEKDGPYLYWKEGKYVYDYTPGYAGYHGLQHETILEHRAPEHPILKGLPIRWKHFKDEIYTRLRGPVRNVEILATAYERGRHEPLMWTVKWGKGRVFVDLLGHCGNDPNMIYSMECTGFQVTLLRGAEWAATGEVTQEAPRDFPLEDTCTLRPEFKAPFHATN”, the “soluble on expression in E. coli” value is “not soluble”.

With “SDALSWGHGPRLFEVFLEPTCPFSVKAFFKLDDLLAQAGEDNVTVRIRLQSQPWHMFSGVIVRCILAAATLEGGKESAKAVMTAVASHREEFEFEHHAGGPNLDATPNDIIARIERYSGLALAEAFANPELEHAVKWHTKYARQNGIHVSPTFMINGLVQPGMSSGDPVSKWVSDIG”, the “soluble on expression in E. coli” value is on record as “not soluble”.

Consider “MAERRMFAKTIIDSDAFLDMPLSSQALYFHLAMRADDDGFINNPKKLQRMVGCGEDDLKLLMVKKFILVFESGVIVIKHWKIHNYIRSDRYKPTLYQEEKNQIVEKNSKAYTFKAESSVGGQPADYQRLPQESIVQSKLGQSQGSSSENDCLKMIYHFYEENGFGTLASKTSQDFKYWLQDFIQKGASQEEACQLILHALGIAVDRNKRNYGYVNAILKSWEQQNYLSVHEVLVNDKKQVLEHAPQMTEEYQELGF”, for which the “soluble on expression in E. coli” value was “not soluble”.

For the sequence “MGSDKIHHHHHHMRYTLRQLEVFVAIAQHESVSLAARRLAMSQSATSTALAELERQFDCQLLDRIGKRLKLNALGFQLLPKAVALLDRGEEIEELLKGQRGIGSLDVGATLTIGNYLATLLISDFMRRHPGSRVRLHVRNTASIVDRVTHHDLDLGLIEGDCQHDDIVMQPWVEDELTVFCSPRHPLANAGEADLEALMREDWIMREEGSGTRRTLDQAMRHRRGRLNVLLELEHTEAIKRAVESGLGIGCVSHLALRDAFRRGSLVPIATPELDLTRQFTFIWHRHKYLTTAMREFLRLCREMTAGVQRSDEIDLPAVP”, the “soluble on expression in E. coli” value is listed as “not soluble”.

On to “MSNSFGIKVIACDKIFYNGRCTQLVLPLRDGSKAIQAHHENMVFSVEVGEIKITKEDGSTIVGVTGTGFAQMVNNRATVIVDTCEYPEEIDLRRAEEAKERAEEQLRQKQSIAEYHISKASLARAMARLKEGSGKGTPYGY”, for which the “soluble on expression in E. coli” value is listed as “not soluble”.

For “GPGSMSGGLPRQFVLKVERHVPVNKGMGLAYPTVPGGSDVADADATPHAGAGERHQSNEAGGDMASGTLKDEAGSIHLSHEKETQTEEVPLPTCEANACDVDGTHCLSVDALDMAVRSNGAALRQMRSSSHLTAAFHTSASDDYGDSISPNPSDRQSFIGSLRVSYVELMSGESIPVYFPPSLGTSGGVEGKTMTLSEDLGCENQ”, the “soluble on expression in E. coli” value is recorded as “not soluble”.

Consider “MVAKISVGSSLFGALSYNQNKVDEEQGKVLLSNRMFESEDGNFSIRRCMECFDIHLPADLKTEKPIIHISLNPHPDDVLLDSQLADIAKEYMDKLGYGNQPYIVYKHEDIARHHIHIVSIRVDDTGKKINDKFEHIRSKQITRELEQKYGLHPAEKKQAAERPELKKVDYRAGDVKHQLSNTVKALASSYRFQSFTEYKALLSIYNVQAEEVKGEVNGKPYNGIVYSATNDKGEKQGNPFKSSSLGKSVGYEAIQRHIKKSTKDIQGKNLKERTRRTVGAVMKSTYNRKELEQELKKKGIDVLFRQNDTGRIYGVTFIDHENRTVLNGSRLGKDFSANVFNNLFSGSRTLTGNSKQEMQEHTPEFNSTGHLENTGKTIAGLFSLLSGGNDTPPDNSQVPPSKKRKKKKQRRILEHHHHHH”, for which the “soluble on expression in E. coli” value is given as “not soluble”.

As for “MAVNVYSTSVTSENLSRHDMLAWVNDSLHLNYTKIEQLCSGAAYCQFMDMLFPGCVHLRKVKFQAKLEHEYIHNFKVLQAAFKKMGVDKIIPVEKLVKGKFQDNFEFIQWFKKFFDANYDGKDYNPLLARQGQDVAPPPNPGDQIF”, the “soluble on expression in E. coli” value is listed as “soluble”.

Consider “MVVYGADVICASCVNAPTSKDIYDWLQPLLKRKYPNISFKYTYIDITKDNDNLTDHDLQFIERIEQDELFYPLITMNDEYVADGYIQTKQITRFIDQKLVNE”, for which the “soluble on expression in E. coli” value is “soluble”.

For the sequence “MRLISKPVLCNYYVTYRCNATCGFCDIWEKPSPYVTPEAVEQNMRDLKKLGVKVIDFTGGEPLLHREMDTLLRIAKKYGMITTLTTNALLYPKWAERLKGLIDMLHFSLDSPDKAEHDTLRGVACFDFVLESIEKAKALGERPDIIFTVFNHNIHLIKRMYEEICLPNNLILILNPSFEYNQVEVGTGLQKKELDILSYWAKQKNIYINEAFIQLRLDGGNHTADPVCKAASSTLVISPENKLVLPCYHLGTDSFQIENNLFDLYHSKEVRAIIAQEGKLDACEGCTINCYMQPSFAVEINKYWFKAMPSTLKYSREKGTWKQLFR”, the “soluble on expression in E. coli” value is reported as “not soluble”.

For “AKDDKVTVLSIERGNKLVYLEKLGLRGDQFYYKIERIRESNGVVYIYHTSYIPEQYINANYPNLEYYSSIYNRFKLDYHIHMNDEHFEEINEIVFPTPEHAASVLGVDEQFPTVLQTKITKLESTGQVLEYSETYKRSDYYK”, the “soluble on expression in E. coli” value is “soluble”.

Turning to “MTDQLQHIRKPPRTGKAARSGTQDEIVYAHIFDAILEQRLAPGTKLSEEALGEIFGVSRTIIRRALSRLAHEQVVLLRPNRGAVVASPSIDEARQILFARRTVERAITELATDNATAERLAEL”, the “soluble on expression in E. coli” value is on record as “not soluble”.

In the case of “MRLCDRDIEAWLDEGRLSINPRPPVERINGATVDVRLGNKFRTFRGHTAAFIDLSGPKDEVSAALDRVMSDEIVLDEGEAFYLHPGELALAVTLESVTLPADLVGWLDGRSSLARLGLMVHVTAHRIDPGWSGCIVLAFYNSGKLPLALRPGMLIGALSFEPLSGPAVRPYNRREDAKYRNQQGAVASRIDKD”, the “soluble on expression in E. coli” value is “soluble”.

Regarding “MHLHFTPRQIVEKLDQYIIGQKDAKKAVAVALRNRYRRSKLAENLRDEIAPKNILMIGPTGVGKTEVARRMAKLVGAPFIKVEATKFTEVGYVGRDVESMVRDLVETSVRIVKEEMVVKVQDKAEEQANQRLVEILVPSPEKQSGFKNPLEMLFGGTQNSNQTTDSQEDVEIEKKRQDVERKLAAGLLEDEIVSIEVTEQQSSMFDMLQGTGMEQMGMNFQDALGSFMPKKTKKRKLSVKEARKVLTNEEAQRLIDMDEVTQEAVYRAEQLGIIFIDEIDKIAGKQSNSVDVSREGVQRDILPIVEGSNVATKYGSVKTDYILFVAAGAFHMSKPSDLIPELQGRFPIRVELTKLSTDDFVKILIEPDNALIKQYMALLATEGIEIEFSDEAIRKIAEIAYQVNQDTDNIGARRLHTIMEKLLEDLSFEASEITLEKITITPQYVEEKLATIAKNKDVSQFIL”, the “soluble on expression in E. coli” value is given as “not soluble”.

Consider “MLKYRDEKDISACGIFGIMDRKGRRFNGKLVIEAMSQMKVRGNGLGAGFAVYGLYKKFKEYYAFHVMIYDKDGREKLEKFLSTNFDIVYVDEIPVNDKAKVIDPPKFMRYFVAPRKKGTEKVLNDDDFVVKKVMYINRAIPGVYVISSGKNMGVFKGVGFPEDIADYFMIEEYKGYIWTAHTRFPTNTPGWWGGAHPFSILDWSVVHNGEISSYGTNKRYLEMYGYYSTLQTDTEVITYIFDLLVRRQGLPIEVVSKILAPPMWEEIDRMPEKEKKFYKALRMVYSPILLNGPWAIIVARHGEMIGLTDRIRLRPLTVAEKKSFLIISSEEAPIRYLFRDVDRIYTPYGGELVVGKLEEDIKKFVGESQ”, for which the “soluble on expression in E. coli” value is on record as “not soluble”.

“MSLQSFENEIAFITGGASGAGFGQAQVFGRAGAKIVVADVRAEAVERAVAALKAEGIVAHGLVLDITDRQAYAGAADEVEQVFGAAPTLLFNTAGVNSFGPVEDTSYDDFDWIVGVNLGGVINGMVTFVPRMIASGRPGHIVTTSSLGGLMGSALAAPYSAAKAAVINLMESYRQGLDKHGIGVSVLCPANIKSNIAEASRLRPAQFGKSGYVENEESIASLHSIHQHGMDPVELAEHVKAGIVANQLYIIPYPEAKDGLRQHFDAIVDAVLPLEADPEGARARTEALNAWAADRARVFMEKNAAQKAEGHHHHHH”: the “soluble on expression in E. coli” value is “not soluble”.

With “MFKRTKLILIATLLLSGCSTTNNESNNETKSVPEEMEASKYVGQGFQPPAEKDAIEFAKKHRKEFEKVGEQFFKDNFGLKVKATNVVGKDDGIEVYVHCDDHGIVFNASLPLYKDAIHQKGSMRSNDNGDDMSMMVGTVLSGFEYRAQKEKYDNLYKFFKENEKKYQYTGFTKEAINKTQNVGYKNEYFYITYSSRSLKEYRKYYEPLIQKNDKEFKEGMERARKEVNYAADTDAVATLFSTKKNFTNDNTEDDVIELSDKLYNLKNKPDKSTITIQIGKPTINTKKAFYDDNRPIEYGVHSKGELEHHHHHH”, the “soluble on expression in E. coli” value was “not soluble”.
